Results from patent US20110166062A1 (INDIANA UNIVERSITY RESEARCH AND TECHNOLOGY, published 2011).
*1 amine or outer side, *2 acyl side, *3 side chain or, on linkers, in order; H or OH if unused. Where no end group is shown, it is not given here. Side-chain parts run from the residue outwards. [ ]: non-standard residue; d: D form. The star is where a group is joined. γGlu = O=C(O)[C@H](CCC(=O)[*:2])N[*:1]; Palmitoyl = CCCCCCCCCCCCCCCC(=O)*; Aib = CC(C)(N)C(=O)O

T1: GIP receptor (UniProt P48546 22-466)
T1 sequence (looked up): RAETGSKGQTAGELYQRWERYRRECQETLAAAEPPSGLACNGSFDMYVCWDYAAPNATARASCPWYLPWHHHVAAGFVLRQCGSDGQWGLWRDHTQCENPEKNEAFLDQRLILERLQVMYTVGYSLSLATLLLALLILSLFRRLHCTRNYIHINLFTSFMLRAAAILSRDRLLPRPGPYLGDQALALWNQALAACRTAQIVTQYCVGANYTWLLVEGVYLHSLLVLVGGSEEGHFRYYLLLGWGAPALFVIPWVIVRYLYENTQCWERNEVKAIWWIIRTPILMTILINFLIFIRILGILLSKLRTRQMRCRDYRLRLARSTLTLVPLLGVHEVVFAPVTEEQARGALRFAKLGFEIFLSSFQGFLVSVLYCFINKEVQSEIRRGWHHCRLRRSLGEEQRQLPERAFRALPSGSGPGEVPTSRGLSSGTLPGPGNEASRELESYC

B1: mt-385 (peptide)
peptide: Y[Aib]QGTFISDK([γGlu-γGlu-Palmitoyl])SIYLDKQAA[Aib]EFVNWLLAGGPSSGAPPPS-NH2
modifications: N-terminus assumed
SMILES: CCCCCCCCCCCCCCCC(=O)N[C@@H](CCC(=O)N[C@@H](CCC(=O)NCCCC[C@H](NC(=O)[C@H](CC(=O)O)NC(=O)[C@H](CO)NC(=O)[C@@H](NC(=O)[C@H](Cc1ccccc1)NC(=O)[C@@H](NC(=O)CNC(=O)[C@H](CCC(N)=O)NC(=O)C(C)(C)NC(=O)[C@@H](N)Cc1ccc(O)cc1)[C@@H](C)O)[C@@H](C)CC)C(=O)N[C@@H](CO)C(=O)N[C@H](C(=O)N[C@@H](Cc1ccc(O)cc1)C(=O)N[C@@H](CC(C)C)C(=O)N[C@@H](CC(=O)O)C(=O)N[C@@H](CCCCN)C(=O)N[C@@H](CCC(N)=O)C(=O)N[C@@H](C)C(=O)N[C@@H](C)C(=O)NC(C)(C)C(=O)N[C@@H](CCC(=O)O)C(=O)N[C@@H](Cc1ccccc1)C(=O)N[C@H](C(=O)N[C@@H](CC(N)=O)C(=O)N[C@@H](Cc1c[nH]c2ccccc12)C(=O)N[C@@H](CC(C)C)C(=O)N[C@@H](CC(C)C)C(=O)N[C@@H](C)C(=O)NCC(=O)NCC(=O)N1CCC[C@H]1C(=O)N[C@@H](CO)C(=O)N[C@@H](CO)C(=O)NCC(=O)N[C@@H](C)C(=O)N1CCC[C@H]1C(=O)N1CCC[C@H]1C(=O)N1CCC[C@H]1C(=O)N[C@@H](CO)C(N)=O)C(C)C)[C@@H](C)CC)C(=O)O)C(=O)O
B2: mt-369 (peptide)
peptide: Y[Aib]EGTFTSDK([γGlu-γGlu-Palmitoyl])SIYLDKQAA[Aib]EFVNWLLAGGPSSGAPPPSK-NH2
modifications: N-terminus assumed
SMILES: CCCCCCCCCCCCCCCC(=O)N[C@@H](CCC(=O)N[C@@H](CCC(=O)NCCCC[C@H](NC(=O)[C@H](CC(=O)O)NC(=O)[C@H](CO)NC(=O)[C@@H](NC(=O)[C@H](Cc1ccccc1)NC(=O)[C@@H](NC(=O)CNC(=O)[C@H](CCC(=O)O)NC(=O)C(C)(C)NC(=O)[C@@H](N)Cc1ccc(O)cc1)[C@@H](C)O)[C@@H](C)O)C(=O)N[C@@H](CO)C(=O)N[C@H](C(=O)N[C@@H](Cc1ccc(O)cc1)C(=O)N[C@@H](CC(C)C)C(=O)N[C@@H](CC(=O)O)C(=O)N[C@@H](CCCCN)C(=O)N[C@@H](CCC(N)=O)C(=O)N[C@@H](C)C(=O)N[C@@H](C)C(=O)NC(C)(C)C(=O)N[C@@H](CCC(=O)O)C(=O)N[C@@H](Cc1ccccc1)C(=O)N[C@H](C(=O)N[C@@H](CC(N)=O)C(=O)N[C@@H](Cc1c[nH]c2ccccc12)C(=O)N[C@@H](CC(C)C)C(=O)N[C@@H](CC(C)C)C(=O)N[C@@H](C)C(=O)NCC(=O)NCC(=O)N1CCC[C@H]1C(=O)N[C@@H](CO)C(=O)N[C@@H](CO)C(=O)NCC(=O)N[C@@H](C)C(=O)N1CCC[C@H]1C(=O)N1CCC[C@H]1C(=O)N1CCC[C@H]1C(=O)N[C@@H](CO)C(=O)N[C@@H](CCCCN)C(N)=O)C(C)C)[C@@H](C)CC)C(=O)O)C(=O)O
B3: mt-368 (peptide)
peptide: Y[Aib]QGTFTSDYSIYLDKQAA[Aib]EFVNWLLAGGPSSGAPPPSK([γGlu-γGlu-Palmitoyl])-NH2
modifications: N-terminus assumed
SMILES: CCCCCCCCCCCCCCCC(=O)N[C@@H](CCC(=O)N[C@@H](CCC(=O)NCCCC[C@H](NC(=O)[C@H](CO)NC(=O)[C@@H]1CCCN1C(=O)[C@@H]1CCCN1C(=O)[C@@H]1CCCN1C(=O)[C@H](C)NC(=O)CNC(=O)[C@H](CO)NC(=O)[C@H](CO)NC(=O)[C@@H]1CCCN1C(=O)CNC(=O)CNC(=O)[C@H](C)NC(=O)[C@H](CC(C)C)NC(=O)[C@H](CC(C)C)NC(=O)[C@H](Cc1c[nH]c2ccccc12)NC(=O)[C@H](CC(N)=O)NC(=O)[C@@H](NC(=O)[C@H](Cc1ccccc1)NC(=O)[C@H](CCC(=O)O)NC(=O)C(C)(C)NC(=O)[C@H](C)NC(=O)[C@H](C)NC(=O)[C@H](CCC(N)=O)NC(=O)[C@H](CCCCN)NC(=O)[C@H](CC(=O)O)NC(=O)[C@H](CC(C)C)NC(=O)[C@H](Cc1ccc(O)cc1)NC(=O)[C@@H](NC(=O)[C@H](CO)NC(=O)[C@H](Cc1ccc(O)cc1)NC(=O)[C@H](CC(=O)O)NC(=O)[C@H](CO)NC(=O)[C@@H](NC(=O)[C@H](Cc1ccccc1)NC(=O)[C@@H](NC(=O)CNC(=O)[C@H](CCC(N)=O)NC(=O)C(C)(C)NC(=O)[C@@H](N)Cc1ccc(O)cc1)[C@@H](C)O)[C@@H](C)O)[C@@H](C)CC)C(C)C)C(N)=O)C(=O)O)C(=O)O

What was measured:
Test in all cases: cell-based or functional assay
[1] = target: T2, GLP-1 receptor (UniProt P43220 24-463, limits assumed)
[2] = target: T3, glucagon receptor (UniProt P47871 26-477, limits assumed)
[3] = target: T1, GIP receptor
[4] = target: T2, GLP-1 receptor; remark: listed apart in the source
[5] = target: T3, glucagon receptor; remark: listed apart in the source
[6] = target: T1, GIP receptor; remark: listed apart in the source

T3 sequence (P47871 26-477 limits assumed): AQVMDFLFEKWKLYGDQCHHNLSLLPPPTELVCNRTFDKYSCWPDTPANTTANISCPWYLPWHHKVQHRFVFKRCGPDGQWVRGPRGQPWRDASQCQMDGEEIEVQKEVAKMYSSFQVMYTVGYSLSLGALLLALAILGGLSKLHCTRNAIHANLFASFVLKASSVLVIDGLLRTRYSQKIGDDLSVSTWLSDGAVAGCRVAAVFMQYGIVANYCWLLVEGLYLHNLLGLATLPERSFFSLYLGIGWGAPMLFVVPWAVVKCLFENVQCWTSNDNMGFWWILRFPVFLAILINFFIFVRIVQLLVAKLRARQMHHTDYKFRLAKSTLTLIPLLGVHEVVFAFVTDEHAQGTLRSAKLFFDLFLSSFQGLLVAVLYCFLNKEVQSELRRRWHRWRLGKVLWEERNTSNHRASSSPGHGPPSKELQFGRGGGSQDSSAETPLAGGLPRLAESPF

Binder | % Relative activity at the Receptor for GLP-1 [1] [%] | % Relative activity at the Receptor for Glucagon [2] [%] | % Relative activity at the Receptor for GIP [3] [%] | EC50, nM; GLP-1 Receptor [4] [nM] | relative activity; GLP-1 Receptor [4] [%] | EC50, nM; Glucagon Receptor [5] [nM] | relative activity; Glucagon Receptor [5] [%] | EC50, nM; GIP Receptor [6] [nM] | relative activity; GIP Receptor [6] [%]
B1 | 3.18 | 239 | 715 |  |  |  |  |  | 
B2 | 385 | 1.54 | 204 | 0.0041 | 385 | 2.19 | 1.54 | 0.0014 | 204
B3 | 419 | 492 | 296 | 0.0038 | 419 | 0.0069 | 492 | 0.00097 | 296
